Data as given in publication PMC2665906, “Structure of mouse IP-10, a chemokine” (Acta Crystallographica Section D: Biological Crystallography, 2008).

Target: the molecule itself
Assay: crystal structure; hanging-drop vapour diffusion; protein 10 mg/ml in 50 mM Tris-HCl pH 8.0; 0.1 M Tris-HCl pH 8.0, 0.2 M CaCl2, 35% PEG 3350, 289 K; space group C2, four molecules in the asymmetric unit; 2.5 Å

B1: Mouse interferon-γ-inducible protein (IP-10) (natural protein, UniProt P17515 22-98, looked up)
chain: IPLARTVRCNCIHIDDGPVRMRAIGKLEIIPASLSCPRVEIIATMKKNDEQRCLNPESKTIKNLMKAFSQKRSKRAP
notes: Mouse IP-10 (CXCL10), cloned and expressed as described by Campanella et al. (2003) with some modifications; The model holds residues 1-68 (A), 1-67 (B), 4-68 (C) and 4-67 (D); No tag is mentioned; C-terminal residues beyond 67/68 were not seen in the electron density; also called mouse IP-10; CXCL10
stoichiometry N: 4
